US20230074436A1 (DENALI THERAPEUTICS, published 2023)
Where a chain is given by its changes, count along the chain named. Read-outs that look alike come from different tables or passages of the source.

B1: Chimeric 20H4 (antibody, human IgG1, kappa, V domains shown)
VH: AVQLVESGGGLVQPKESLKISCAASGFTFSNAAMYWVRQAPGKGLELLARIRTKPNNYATYHADSVKGRFTISRDDSQSMVYLHMGNLKTEDTAMYYCTADMATGDYWGPGVMVTVSS
VL: DIQMTQSPPVLSVSVGDRVTLSCKASQNINKNLDWYQQKHGEAPKPLIYSTNNLQTGVPSRFSGSGSGTDYTLTISSLQPEDVATYYCYQYKSAWTFGGGTKLELRR
notes: also called Chi 20H4; chimeric 20H4 control
B2: HC2_LC2 (antibody, V domains shown)
VH: EVQLVESGGGLVQPGGSLRLSCAASGFTFSNAAMYWVRQAPGKGLELVSRIRTKPNNYATYHADSVKGRFTISRDNSKNTLYLQMNSLRAEDTAVYYCTADMATGDYWGQGTLVTVSS
VL: DIQMTQSPSSLSASVGDRVTITCKASQNINKNLDWYQQKPGKAPKPLIYSTNNLQTGVPSRFSGSGSGTDFTLTISSLQPEDFATYYCYQYKSAWTFGQGTKVEIK
notes: humanized 20H4 IgG
B3: HC2_LC6 (antibody, V domains shown)
VH: B2 VH
VL: EIVMTQSPATLSLSPGERATLSCKASQNINKNLDWYQQKPGQAPRPLIYSTNNLQTGVPARFSGSGSGTDYTLTISSLQPEDFAVYYCYQYKSAWTFGQGTKVEIK
notes: humanized 20H4 IgG
B4: HC5_LC6 (antibody, V domains shown)
VH: B2 VH with V48L, S49A, N76D, L81V
VL: B3 VL
notes: humanized 20H4 IgG
B5: HC5_LC3 (antibody, V domains shown)
VH: B2 VH with V48L, S49A, N76D, L81V
VL: B2 VL with F71Y
notes: humanized 20H4 IgG
B6: HC3_LC4 (antibody, V domains shown)
VH: B2 VH with L81V
VL: B3 VL with P46L, V58I, Y71F
notes: humanized 20H4 IgG
B7: HC2_LC5 (antibody, V domains shown)
VH: B2 VH
VL: B3 VL with V58I, Y71F
notes: humanized 20H4 IgG
B8: HC5_LC5 (antibody, V domains shown)
VH: B2 VH with V48L, S49A, N76D, L81V
VL: B3 VL with V58I, Y71F
notes: humanized 20H4 IgG
B9: HC3_LC5 (antibody, V domains shown)
VH: B2 VH with L81V
VL: B3 VL with V58I, Y71F
notes: humanized 20H4 IgG
B10: HC5_LC4 (antibody, V domains shown)
VH: B2 VH with V48L, S49A, N76D, L81V
VL: B3 VL with P46L, V58I, Y71F
notes: humanized 20H4 IgG
B11: HC2_LC4 (antibody, V domains shown)
VH: B2 VH
VL: B3 VL with P46L, V58I, Y71F
notes: humanized 20H4 IgG
B12: HC3_LC6 (antibody, V domains shown)
VH: B2 VH with L81V
VL: B3 VL
notes: humanized 20H4 IgG

Assays:
[1] = biological target: T1, human alpha-synuclein monomer (human, UniProt P37840 1-140); test: SPR (Biacore 8K), IgG captured on anti-human Fc, aSyn monomer injected
[2] = biological target: T1, human alpha-synuclein monomer; test: as above; remark: listed apart in the source

Kd [1] [nM]	Kd [2] [nM]	Binder
2.96	–	B1
2.33	3.95	B2
5.27	–	B3
2.78	–	B4
5.17	–	B5
9.08	–	B6
4.11	–	B7
2.46	–	B8
2.4	–	B9
8.48	–	B10
9.78	–	B11
2.74	–	B12
